The target in this series is EWS-FLI1-3A (S464A/S465A/S466A).

B1: OTUD7A (protein)
chain: MVSSVLPNPTSAECWAALLHDPMTLDMDAVLSDFVRSTGAEPGLARDLLEGKNWDLTAALSDYEQLRQVHTANLPHVFNEGRGPKQPEREPQPGHKVERPCLQRQDDIAQEKRLSRGISHASSAIVSLARSHVASECNNEQFPLEMPIYTFQLPDLSVYSEDFRSFIERDLIEQATMVALEQAGRLNWWSTVCTSCKRLLPLATTGDGNCLLHAASLGMWGFHDRDLVLRKALYTMMRTGAEREALKRRWRWQQTQQNKEEEWEREWTELLKLASSEPRTHFSKNGGTGGGVDNSEDPVYESLEEFHVFVLAHILRRPIVVVADTMLRDSGGEAFAPIPFGGIYLPLEVPPNRCHCSPLVLAYDQAHFSALVSMEQRDQQREQAVIPLTDSEHKLLPLHFAVDPGKDWEWGKDDNDNARLAHLILSLEAKLNLLHSYMNVTWIRIPSETRAPLAQPESPTASAGEDVQSLADSLDSDRDSVCSNSNSNNGKNGKDKEKEKQRKEKDKTRADSVANKLGSFSKTLGIKLKKNMGGLGGLVHGKMGRANSANGKNGDSAERGKEKKAKSRKGSKEESGASASTSPSEKTTPSPTDKAAGASPAEKGGGPRGDAWKYSTDVKLSLNILRAAMQGERKFIFAGLLLTSHRHQFHEEMIGYYLTSAQERFSAEQEQRRRDAATAAAAAAAAAAATAKRPPRRPETEGVPVPERASPGPPTQLVLKLKERPSPGPAAGRAARAAAGGTASPGGGARRASASGPVPGRSPPAPARQSVIHVQASGARDEACAPAVGALRPCATYPQQNRSLSSQSYSPARAAALRTVNTVESLARAVPGALPGAAGTAGAAEHKSQTYTNGFGALRDGLEFADADAPTARSNGECGRGGPGPVQRRCQRENCAFYGRAETEHYCSYCYREELRRRREARGARP
Turning to B1, the “3A-EWS-FLI1 protein level after OTUD7A depletion (immunoblot, FIG. 3I)” value is on record as “depletion of OTUD7A failed to reduce 3A-EWS-FLI1 protein levels”.

(Values after US20240197738.)
